# Where no end group is shown, it is not given here.
# Legend:
# [1] = biological target: T1, PDE4D5-HSP20 complex (Homo sapiens, UniProt O14558); experiment: Immunoprecipitation of HSP20 probed for PDE4D5, HEK293 cell lysate; format: binding; conditions: HEK293 cells transfected with HSP20 and PDE4D5, increasing peptide concentrations
# T1 construct: containing the open reading frame of Hsp20 in pENTR221 vector, was used to generate pcDNA6.2-Hsp20; expressed in transfected cells; host or cells: HEK293 cells
# T1 sequence (O14558 1-160): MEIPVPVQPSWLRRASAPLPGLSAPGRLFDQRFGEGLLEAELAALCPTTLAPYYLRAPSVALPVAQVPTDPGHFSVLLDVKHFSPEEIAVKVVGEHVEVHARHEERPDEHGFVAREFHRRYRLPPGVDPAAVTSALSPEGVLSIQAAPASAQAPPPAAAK
# Text: FIG. 6. Peptide disruption of the PDE4D-HSP20 complex promotes PKA phosphorylation on Ser16. A, Upper panel. HEK293 cells were transfected with HSP20 and PDE4D5. Immunoprecipitation of HSP20 done in the presence increasing concentrations of Peptide 906 (SEQ ID NO: 36) and Peptide control (SEQ ID NO: 37) were probed for PDE4D5. Lower panel. Densitometric analysis of amount of PDE4D5 in HSP20 immunoprecipitates normalised to expression level. Data representative of n=3. B, Purified preparations of HSP20-His and PDE4D5-GST were subject to an ELISA assay containing increasing amounts of ‘Peptide 906’ and ‘peptide control’. C, Upper panel, HSP20 was transfected into HEK293 cells and treated with ‘Peptide 906’ for indicated times. Cellular lysates were blotted for HSP20 and phospho-HSP20. Middle panel, HSP20 was transfected into HEK293 cells and treated with ‘Peptide 906’ or ‘peptide control’ for indicated times. Cellular lysates were blotted for HSP20 and phospho-HSP20. Lower panel, Densitometric analysis of phosphorylation of HSP20 normalised to expression level (n=3).
# HEK293B2 cells are a stable cell line overexpressing the GFP-tagged β2AR were cultured as previously described^48. […] Protein concentration of lysates were determined using the Bradford assay and all samples were equalised for protein concentration. […]
# [2] = system: neonatal cardiac myocytes; experiment: Cardiac myocyte size by xCELLigence impedance (normalised cell index); format: cell-based, rat; conditions: 24 hour isoprenaline 10 μM, 30 min pre-treatment with 10 μM peptide
# Procedure: FIG. 7. Peptide disruption of the PDE4D-HSP20 complex attenuates the hypertrophic response triggered by constant […]-agonist treatment. A, Upper panel. The area covered by isolated cardiac myocytes was used as a measure of cell size. Lower panel, Graphical depiction of the mean areas (N=100) of cells following 24 hours of indicated treatments. B, impedance measurements were used to calculate continuous normalised cell index using exCELLigence technology Normalised mean (n=4) cell index after 24 hours of indicated treatments.
# The E-Plate 96 (Roche) was used for these experiments^45. This comprises a 96-well plate with integral sensor electrode arrays to measure cell impedance. […] E-plate 96 is a 96-well microtiter plate with incorporated gold cell sensor arrays in the bottom, which allows impedance inside each well to be monitored and assayed in real time. […] The impedance measured between electrodes in an individual well depends on electrode geometry, ion concentration in the well and whether or not cells are attached to the electrodes^45. In the absence of cells, electrode impedance is mainly determined by the ion environment both at the electrode/solution interface and in the bulk solution. […] Small changes in impedance can also be recorded when cells temporally change shape or size in response to agonists^46,57. […]
substance,measurement,setting,value
"Peptide 906: stearoylated, cell-permeable disrupter peptide of PDE4D5 residues E468-K492 (SEQ ID NO: 36) (ENHHLAVGFKLLQEENSDIFQNLTK; also: stearoylated, site not given here)",association between PDE4D5 and HSP20 in immunoprecipitation from cellular lysate,[1],attenuated the association between PDE4D5 and HSP20
same,"cell size (normalised cell index, impedance) of cardiac myocytes",[2],could be rescued
